# Laboratory results taken from patent US11994512B2, “Single-cell genomic methods to generate ex vivo cell systems that recapitulate in vivo biology with improved fidelity” (Massachusetts Institute of Technology, priority 2018, dated 2024).
# B1: Q8WUR0 (protein, UniProt Q8WUR0 1-141, looked up)
# chain: MPIMVDDIMRLLCSISQERKMKAAVKHSGKGAMVAGAMAFVGGLVGGPPGIAVGGTVGGLLGAWMTSGQFKPVPQILMELPPAEQRKLVNEAMAIIGNLDWTDAVQLTALVMSNQAMQQRLLAMLTTYVTKELQAEIRYED
# modifications: full-length
# B2: Q8VHC3 (protein, UniProt Q8VHC3 1-145, looked up)
# chain: MSILLSPPSLLLLLAALVAPATSTTNYRPDWNRLRGLARGRVETCGGUQLNRLKEVKAFVTEDIQLYHNLVMKHLPGADPELVLLSRNYQELERIPLSQMTRDEINALVQELGFYRKSAPEAQVPPEYLWAPAKPPEEASEHDDL
# modifications: full-length
# B3: Q921T2 (protein, UniProt Q921T2 1-595, looked up)
# chain: MAGERWQAEGPGEGWAIYVTPRAPIREGRRRLDPRNGDSSDAPAYGAHPSRRGRREVRFSEEPAEVYGDFEPRAAKERSPGGRRTPPEKFRPASAGEEVRESAYNLRSRPRRQRRAQEAEEMKTRRSARLEQHSQQPQLSPATSGRGLRDSPSSSEDREEDEPSSRPVTSQTASKKTLRTPEASVMNEDPISNLCRPPLRSPRLDSTYQTNGNTKTNEREATIVQQVNFFEEGETEDDLESSYSDITIRARSSDSLESRDEATPAAGNHPDSLRGLPHNQDFPAHENQPLLLTSGCQENPQEWVDRAVRMRSRMAYNNIQKSNFGNQSPSTSRPQSAIHHPNEPSVKIKWWLLGLVAILAVGLFWFFHTPAVETTAVQEFQNQMKQLQSKYQSQNEKLWKRGTTFLEKHLNSSLPRPQPAILLLTAAQDAAEVLKCLSEQIADAYSSFRSVRAIRIDGAGKAAQDSDLVKHEVDQELTDGFKNGQNAAVVHRFESLPAGSTLIFYKYCDHENAAFKDVALVLTVLLEEKTLEASLGLKEIEEKVRDFLKVKFTSSSTASSYNHMDPDKLNGLWSRISHLVLPVQPENTLKAGSCL
# modifications: full-length
# B4: Q91WU0 (protein, UniProt Q91WU0 1-561, looked up)
# chain: MFLSTLFLVSLATCVICGNPSSPPVVDTAHGKVLGKHVNVEGFSQPVAVFLGIPFAKPPLGSLRFAPPQPAEPWSSVKNATTYPPMCSQDAARGQAVNDLITNRKEKIHLEFSEDCLYLNIYTPADFSKNSRLPVMVWIHGGGLKLGGASSFDGRALSAYENVVVVAIQYRLSIWGFFSTGDEHSRGNWGHLDQVAALHWVQDNIANFGGDPGSVTIFGESAGGYSVSILILSPLSKNLFHRAISESGVAFIPGMFTKDVRPITEQIAVTAGCKTTTSAVIVHCMRQKTEEELLEIMHKLNLYKLSLQGDTKNSDQFVTSVLDGVVLPKDPKEILAEKNFNTVPYIVGINKQECGWLLPTMTGFLPADVKLDKKKAIALLEQFASMTGIPEDIIPVAVEKYTKGSDDPDQIREGVLDAMGDVAFGVPSVIVSRGHRDTGAPTYMYEYQYYPSFSSPQRPKNVVGDHADDVYSVFGAPILREGASEEEINLSKMVMKFWANFARNGNPNGKGLPHWPKYDQKEGYLHIGGTTQQAQRLKEEEVTFWTQSLAKKQPQPYHNEL
# modifications: full-length
# B5: Q921X9 (protein, UniProt Q921X9 1-517, looked up)
# chain: MARAWGLLLAIGVVLPTWLSSTKVSSLIERISDPKDLKKLLRTRNNVLVLYSESEVAAESHLKLLSTVAQAVKGQGTVCWVDCGDAESRKLCKKMKVDLSPKDKKIELFHYQDGAFHMQYDRAVTLKSIVAFLKDPKGPPLWEEDPGAKDVVHIDSEKDFRRLLKREEKPLLMMFYAPWCSMCKRIMPHFQKAATQVRGHIVLAGMNVYPSEFENIKEEYNVRGYPTICYFEKGRFLFPYENYGSTAEDIVEWLKNPLPPQPQVPETPWADEGGSVYHLTDEDFDQFVKEHSSVLVMFHAPWCGHCKKMKPEFESAAEVLHGDAESSGVLAAVDATVNEALAGRFHISAFPTLKYFKNGEQQAVPALRTKKKFIEWMQNPEAPPPPEPTWEEQQTSVLHLVGDNFRDTLKKKKHTLVMFYAPWCPHCKKVIPHFTATADAFKEDRKIACAAVDCVKDKNQDLCQQEAVKAYPTFHYYHYGKLVEKYESDRTELGFTSFIRTLREGDLKRLEKRREEL
# modifications: full-length
# B6: Q91Y74 (protein, UniProt Q91Y74 1-333, looked up)
# chain: MTSKSHWKLLALALVLVVVMVWYSISREDRYIEFFYFPISEKKEPCFQGEAERQASKIFGNRSREQPIFLQLKDYFWVKTPSTYELPFGTKGSEDLLLRVLAITSYSIPESIKSLECRRCVVVGNGHRLRNSSLGGVINKYDVVIRLNNAPVAGYEGDVGSKTTIRLFYPESAHFDPKIENNPDTLLVLVAFKAMDFHWIETILSDKKRVRKGFWKQPPLIWDVNPKQVRILNPFFMEIAADKLLSLPIQQPRKIKQKPTTGLLAITLALHLCDLVHIAGFGYPDASNKKQTIHYYEQITLKSMAGSGHNVSQEAIAIKRMLEMGAVKNLTYF
# modifications: full-length
# B7: Q8VI93 (protein, UniProt Q8VI93 1-1138, looked up)
# chain: MDLFHTPAGALDKLVAHNLHPAPEFTAAVRGALGSLNITLQQHRARGSQRPRVIRIAKGGAYARGTALRGGTDVELVIFLDCFQSFGDQKTCHSETLGAMRMLLESWGGHPGPGLTFEFSQSKASRILQFRLASADGEHWIDVSLVPAFDVLGQPRSGVKPTPNVYSSLLSSHCQAGEYSACFTEPRKNFVNTRPAKLKNLILLVKHWYHQVQTRAVRATLPPSYALELLTIFAWEQGCGKDSFSLAQGLRTVLALIQHSKYLCIFWTENYGFEDPAVGEFLRRQLKRPRPVILDPADPTWDVGNGTAWRWDVLAQEAESSFSQQCFKQASGVLVQPWEGPGLPRAGILDLGHPIYQGPNQALEDNKGHLAVQSKERSQKPSNSAPGFPEAATKIPAMPNPSANKTRKIRKKAAHPKTVQEAALDSISSHVRITQSTASSHMPPDRSSISTAGSRMSPDLSQIPSKDLDCFIQDHLRPSPQFQQQVKQAIDAILCCLREKSVYKVLRVSKGGSFGRGTDLRGSCDVELVIFYKTLGDFKGQKPHQAEILRDMQAQLRHWCQNPVPGLSLQFIEQKPNALQLQLASTDLSNRVDLSVLPAFDAVGPLKSGTKPQPQVYSSLLSSGCQAGEHAACFAELRRNFINTCPPKLKSLMLLVKHWYRQVVTRYKGGEAAGDAPPPAYALELLTIFAWEQGCGEQKFSLAEGLRTILRLIQQHQSLCIYWTVNYSVQDPAIRAHLLCQLRKARPLVLDPADPTWNVGQGDWKLLAQEAAALGSQVCLQSGDGTLVPPWDVTPALLHQTLAEDLDKFISEFLQPNRHFLTQVKRAVDTICSFLKENCFRNSTIKVLKVVKGGSSAKGTALQGRSDADLVVFLSCFRQFSEQGSHRAEIISEIQAHLEACQQMHSFDVKFEVSKRKNPRVLSFTLTSQTLLDQSVDFDVLPAFDALGQLRSGSRPDPRVYTDLIHSCSNAGEFSTCFTELQRDFITSRPTKLKSLIRLVKYWYQQCNKTIKGKGSLPPQHGLELLTVYAWEQGGQNPQFNMAEGFRTVLELIVQYRQLCVYWTINYSAEDKTIGDFLKMQLRKPRPVILDPADPTGNLGHNARWDLLAKEATVYASALCCVDRDGNPIKPWPVKAAV
# modifications: full-length
# B8: Q920F6 (protein, UniProt Q920F6 1-1248, looked up)
# chain: MGHLELLLVENFKSWRGRQVIGPFKRFTCIIGPNGSGKSNVMDALSFVMGEKTTNLRVKNIQELIHGAHTGKPVSSSASVTIIYIEDSGEEKTFTRIIRGGCSEYHFGDKPVSRSVYVAQLENIGIIVKAQNCLVFQGTVESISMKKPKERTQFFEEISTSGEFIGEYEAKKKKLQKAEEDAQFHFNVKKNVAAERKHAKIEKEEAEHYQNLLEELKINKIQLMLFQLYYNEEKINVLNTELEQMDGNLSVVKDTLSHHENIFKAKKKDYGMLTRQLQQTAKELKSVEAILNQKRPQYIKAKENTSHHLKKLDLSKKLITDNEKQCSKQEDGIRALVAELADLDRAWKSFEKQMEEKILQKGRDIELENSQLDRYKLLKEQVRRKVGIMTQQLEKLQWEQKAEKERLAFEKRRHGDTQGNLKQIKEQIEEHKKRIEKLEEYTKTCMDCLEDKKQQEEALKKEIENTKSRMSEVNEELSLIRNELQNAGIDNHEGKRQQKRAEVLEHLKRLYPDSVFGRLLDLCHPIHKKYQLAVTKLFGRYMVAIVVASEKIAKDCIRFLKAERAEPETFLALDYLDIKPINERLREIKGCKMMIDVIKTQFPQLKKVIQFVCGNGLVCETVEEARHIAFGGPERRKAVALDGTLFLKSGVISGGSSDLKHKALCWDEKELHNLRDKRSQLVQELKELMKTLRKETDLKQIQTLVQGTNTRLKYSQNELEMIKKKHLATFYREQSQLQSELLNIDSQCTMLSEGINKQQQKIEEFQDKIDEVEDDIFQDFCEEIGVENIREFENKHVKQQQENDQKRLEFEKQKTRLNIQLEYSRNQLKKKLNNIDTLKTTIQKGKEDIDNLKKTEEECLKIVEELMVKQEQIKEVLATQSSNIEKIHIQIEEERKKVLAVDREVGKLQKEVVIIQGSLEQKLLEKHNLLLDCKVQDIDISLVLGSLEDIIEMELTETESTQATADIYEKEASIQIDYSPLREDLKALQSDKEVEAHLTLLLQQVASQENTLLKTTAPNLRAQENLKTVRDKFQESADVFEASRKEARICRQEFEQVKRRRYDAFSQCFEHISVSIDQIYKKLCRNNSAQAFLSPENPEEPYLDGISYNCVAPGKRFMPMDNLSGGEKCVAALALLFAVHSFRPAPFFVLDEVDAALDNTNIGKVSSYIKEQSQEQFQMIIISLKEEFYSKADALIGVYPEHNECMFSHVLTLDLSKYPDTEDQEGSRSHRKPRVPRVSMSPKSPQSR
# modifications: full-length
# Test system: intracellular proteome of ENR+CD and ENR organoids
# Assay: LC-MS/MS TMT proteomics of ENR+CD versus ENR organoids
# Format: cell-based, C57BL/6 mice
# Settings: ENR+CD versus ENR organoids, sample pairs in aggregate (n=4, 2 technical replicates from two biological donors)
row,Molecule,Average logFC
1,B1,−1.514
2,B2,1.481
3,B3,1.217
4,B4,−1.598
5,B5,1.302
6,B6,−1.232
7,B7,1.461
8,B8,−1.932

# Same assay, conditions: protein abundance ratio ENR+CD versus ENR organoids, sample pair M1-1; LC-MS/MS TMT proteomics
row,Molecule,M1-1 Log2 Median Normalized
1,B1,−0.949
2,B2,1.688
3,B3,1.233
4,B4,−1.5
5,B5,1.535
6,B6,−0.783
7,B7,1.378
8,B8,−1.931

# Same assay, conditions: protein abundance ratio ENR+CD versus ENR organoids, sample pair M1-2; LC-MS/MS TMT proteomics
row,Molecule,M1-2 Log2 Median Normalized
1,B1,−1.798
2,B2,1.48
3,B3,1.176
4,B4,−1.991
5,B5,1.138
6,B6,−1.258
7,B7,0.979
8,B8,−0.989

# Same assay, conditions: protein abundance ratio ENR+CD versus ENR organoids, sample pair M2-1; LC-MS/MS TMT proteomics
row,Molecule,M2-1 Log2 Median Normalized
1,B1,−1.4995
2,B2,1.1495
3,B3,1.0935
4,B4,−2.4445
5,B5,1.0115
6,B6,−1.9425
7,B7,1.6325
8,B8,−2.1915

# Same assay, conditions: protein abundance ratio ENR+CD versus ENR organoids, sample pair M2-2; LC-MS/MS TMT proteomics
row,Molecule,M2-2 Log2 Median Normalized
1,B1,−1.811
2,B2,1.521
3,B3,1.365
4,B4,−0.456
5,B5,1.523
6,B6,−0.946
7,B7,1.853
8,B8,−1.967

# Same assay, conditions: up = enriched in ENR+CD, down = enriched in ENR; FDR<0.05 and log fold change cut-off
row,Molecule,change
1,B1,down
2,B2,up
3,B3,up
4,B4,down
5,B5,up
6,B6,down
7,B7,up
8,B8,down
